Laboratory results reported in the supplement of paper PMC10567573.

B1: SLC6A17 (parent)
chain: KAVEEELDAEDRPAWNSKLQYILA

Variants of: B1
Assay: protein stability index of a GFP-peptide fusion (GPS, HEK-293T) (PSI 1-6); higher = more stable
Conditions: c terminus: a fixed tail appended
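Note: lentivirally expressed fusions sorted by FACS into six bins by GFP to DsRed ratio, PSI derived from sequencing read proportions per bin multiplied by bin number.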

Variant	protein stability index
KAVEEELDAEDRPRWNSKLQYILA [A14R]	2.3
KAVEEELDAEDRPPWNSKLQYILA [A14P]	2.46
KAVEEELDAEDRPSWNSKLQYILA [A14S]	4.07
KAVEEELDAEDRPQWNSKLQYILA [A14Q]	2.4
KAVEEELDAEDRPVWNSKLQYILA [A14V]	2.38
KAVEEELDAEDRPHWNSKLQYILA [A14H]	2.57
KAVEEELDAEDRPFWNSKLQYILA [A14F]	2.18
KAVEEELDAEDRPTWNSKLQYILA [A14T]	3.2
KAVEEELDAEDRPKWNSKLQYILA [A14K]	2.62
KAVEEELDAEDRPYWNSKLQYILA [A14Y]	2
KAVEEELDAEDRPMWNSKLQYILA [A14M]	2.1
KAVEEELDCEDRPAWNSKLQYILA [A9C]	2.65
KAVEEELDYEDRPAWNSKLQYILA [A9Y]	2.48
KAVEEELDVEDRPAWNSKLQYILA [A9V]	3.1
KAVEEELDEEDRPAWNSKLQYILA [A9E]	2.61
KAVEEELDTEDRPAWNSKLQYILA [A9T]	2.82
KAVEEELDMEDRPAWNSKLQYILA [A9M]	1.73
KAVEEELDAEDRPAWPSKLQYILA [N16P]	2.75
KAVEEELDAEDRPAWMSKLQYILA [N16M]	2.37
KAVEEELDAEDRPAWSSKLQYILA [N16S]	3.01
KAVEEELDAEDRPAWESKLQYILA [N16E]	2.81
KAVEEELDAEDRPAWISKLQYILA [N16I]	2.05
KAVEEELDAEDRPAWKSKLQYILA [N16K]	2.52
KAVEEELDAEDRPAWVSKLQYILA [N16V]	2.58

Variant	protein stability index
KAVYEELDAEDRPAWNSKLQYILA [E4Y]	1.8
KAVPEELDAEDRPAWNSKLQYILA [E4P]	2.54
KAVQEELDAEDRPAWNSKLQYILA [E4Q]	2.51
KAVDEELDAEDRPAWNSKLQYILA [E4D]	2.79
KAVFEELDAEDRPAWNSKLQYILA [E4F]	1.43
KAVMEELDAEDRPAWNSKLQYILA [E4M]	1.78
TAVEEELDAEDRPAWNSKLQYILA [K1T]	2.39
PAVEEELDAEDRPAWNSKLQYILA [K1P]	3.03
CAVEEELDAEDRPAWNSKLQYILA [K1C]	1.62
WAVEEELDAEDRPAWNSKLQYILA [K1W]	1.74
DAVEEELDAEDRPAWNSKLQYILA [K1D]	2.96
HAVEEELDAEDRPAWNSKLQYILA [K1H]	2.83
GAVEEELDAEDRPAWNSKLQYILA [K1G]	3.25
IAVEEELDAEDRPAWNSKLQYILA [K1I]	2.12
KAVEEETDAEDRPAWNSKLQYILA [L7T]	3.1
KAVEEEPDAEDRPAWNSKLQYILA [L7P]	3.64
KAVEEEGDAEDRPAWNSKLQYILA [L7G]	4.11
KAVEEEFDAEDRPAWNSKLQYILA [L7F]	2.23
KAVEEEIDAEDRPAWNSKLQYILA [L7I]	2.08
KAVEQELDAEDRPAWNSKLQYILA [E5Q]	1.96
KAVEHELDAEDRPAWNSKLQYILA [E5H]	2.32
KAVESELDAEDRPAWNSKLQYILA [E5S]	2.51
KAVEIELDAEDRPAWNSKLQYILA [E5I]	2.19
KAVEGELDAEDRPAWNSKLQYILA [E5G]	1.89

Variant	protein stability index
KAVEFELDAEDRPAWNSKLQYILA [E5F]	1.91
KAVENELDAEDRPAWNSKLQYILA [E5N]	1.63
KADEEELDAEDRPAWNSKLQYILA [V3D]	3.66
KANEEELDAEDRPAWNSKLQYILA [V3N]	3.07
KAKEEELDAEDRPAWNSKLQYILA [V3K]	2.94
KAAEEELDAEDRPAWNSKLQYILA [V3A]	3.18
KATEEELDAEDRPAWNSKLQYILA [V3T]	2.43
KASEEELDAEDRPAWNSKLQYILA [V3S]	2.65
KAHEEELDAEDRPAWNSKLQYILA [V3H]	1.52
KALEEELDAEDRPAWNSKLQYILA [V3L]	2.31
KAPEEELDAEDRPAWNSKLQYILA [V3P]	2.58
KAVEEELDAEDRPAWNSKLQDILA [Y21D]	3.92
KAVEEELDAEDRPAWNSKLQSILA [Y21S]	3.92
KAVEEELDAEDRPAWNSKLQNILA [Y21N]	3.42
KAVEEELDAEDRPAWNSKLQQILA [Y21Q]	2.75
KAVEEELDAEDRPAWNSKLQCILA [Y21C]	4.37
KAVEEELDAEDRPAWNSKLQIILA [Y21I]	3.09
KAVEEELDAEDRPAWNSKLQPILA [Y21P]	4.58
KAVEEELDAEDRPAWNSKLQAILA [Y21A]	3.99
KAVEEELDAEDRPAWNSKLQFILA [Y21F]	2.9
KAVEEELDAEDRPAWNSKLQVILA [Y21V]	2.08
KAVEEELDAEDHPAWNSKLQYILA [R12H]	2.41
KAVEEELDAEDIPAWNSKLQYILA [R12I]	2.47
KAVEEELDAEDSPAWNSKLQYILA [R12S]	3.4

Variant	protein stability index
KAVEEELDAEDWPAWNSKLQYILA [R12W]	2.19
KAVEEELDAEDDPAWNSKLQYILA [R12D]	3.74
KAVEEELDAEDMPAWNSKLQYILA [R12M]	2.19
KAVEEELDAEDLPAWNSKLQYILA [R12L]	2.45
KAVEEELDAEDEPAWNSKLQYILA [R12E]	3.95
KAVEEELDAEDQPAWNSKLQYILA [R12Q]	3.15
KAVEEELDAEDPPAWNSKLQYILA [R12P]	2.44
KAVEEELDAEDKPAWNSKLQYILA [R12K]	2.83
KAVEEELDAEDRPAWNSKLQYNLA [I22N]	4.41
KAVEEELDAEDRPAWNSKLQYYLA [I22Y]	3.94
KAVEEELDAEDRPAWNSKLQYTLA [I22T]	4.4
KAVEEELDAEDRPAWNSKLQYGLA [I22G]	4.06
KAVEEELDAEDRPAWNSKLQYWLA [I22W]	2.9
KAVEEELDAEDRPAWNSKLQYLLA [I22L]	2.83
KAVEEELDAEDRPAWNSKLQYKLA [I22K]	3.78
KAVEEELDAEDRPAWNSKLQYHLA [I22H]	4.5
KAVEEELDAEDRPAWNSKLQYELA [I22E]	5.01
KAVEEELDAEDRPAWNSKLQYFLA [I22F]	2.2
KAVEEELDAEDRPAWNSKLFYILA [Q20F]	1.9
KAVEEELDAEDRPAWNSKLGYILA [Q20G]	2.32
KAVEEELDAEDRPAWNSKLAYILA [Q20A]	2.06
KAVEEELDAEDRPAWNSKLWYILA [Q20W]	1.56
KAVEEELDAEDRPAWNSKLVYILA [Q20V]	2.13
KAVEEELDAEDRPAWNSKLPYILA [Q20P]	3.25

Variant	protein stability index
KAVEEELDAEDRPAWNSKLIYILA [Q20I]	1.57
KAVEEELDAEDRPAWNSKLCYILA [Q20C]	2.13
KAVEEELDAEDRPAWNSKLQYICA [L23C]	3.59
KAVEEELDAEDRPAWNSKLQYISA [L23S]	4.23
KAVEEELDAEDRPAWNSKLQYIMA [L23M]	2.6
KAVEEELDAEDRPAWNSKLQYIGA [L23G]	3.99
KAVEEELDAEDRPAWNSKLQYIHA [L23H]	3.84
KAVEEELDAEDRPAWNSKLQYIAA [L23A]	3.9
KAVEEELDAEDRPAWNSKLQYIKA [L23K]	3.89
KAVEEELDAEDRPAWNSKLQYIWA [L23W]	3.19
KAVEEELDAEDRPAWNSKLQYIVA [L23V]	3.17
KAVEEELDAEDRPATNSKLQYILA [W15T]	3.46
KAVEEELDAEDRPARNSKLQYILA [W15R]	3.62
KAVEEELDAEDRPAKNSKLQYILA [W15K]	3.99
KAVEEELDAEDRPAGNSKLQYILA [W15G]	3.82
KAVEEELDAEDRPAFNSKLQYILA [W15F]	3.1
KAVEEELDAEDRPAQNSKLQYILA [W15Q]	4.04
KAVEEELDAEDRPAYNSKLQYILA [W15Y]	2.77
KAVEEELDAEDRPAANSKLQYILA [W15A]	3.89
KAVEEELDAEDRPAWNSKLQYILW [A24W]	2.06
KAVEEELDAEDRPAWNSKLQYILT [A24T]	2.85
KAVEEELDAEDRPAWNSKLQYILV [A24V]	1.68
KAVEEELDAEDRPAWNSKLQYILL [A24L]	2.28
KAVEEELDAEDRPAWNSKLQYILY [A24Y]	2.18

Variant	protein stability index
KAVEEELDAEDRPAWNSKLQYILK [A24K]	3.08
KAVEEELDAEFRPAWNSKLQYILA [D11F]	2.07
KAVEEELDAEHRPAWNSKLQYILA [D11H]	2.59
KAVEEELDAEMRPAWNSKLQYILA [D11M]	1.69
KAVEEELDAEPRPAWNSKLQYILA [D11P]	2.02
KAVEEELDAEDRPAWNSILQYILA [K18I]	2.13
KAVEEELDAEDRPAWNSVLQYILA [K18V]	1.64
KAVEEELDAEDRPAWNSLLQYILA [K18L]	1.98
KAVEEELDAEDRPAWNSALQYILA [K18A]	3.16
KAVEEELDAEDRPAWNSSLQYILA [K18S]	3.07
KAVEEELDAEDRPAWNSRLQYILA [K18R]	2.69
KAVEEELDAEDRPAWNSELQYILA [K18E]	3.76
KAVEEELDAEDRPAWNSHLQYILA [K18H]	2.7
KRVEEELDAEDRPAWNSKLQYILA [A2R]	2.28
KFVEEELDAEDRPAWNSKLQYILA [A2F]	1.93
KYVEEELDAEDRPAWNSKLQYILA [A2Y]	2.51
KNVEEELDAEDRPAWNSKLQYILA [A2N]	2.61
KKVEEELDAEDRPAWNSKLQYILA [A2K]	2.46
KEVEEELDAEDRPAWNSKLQYILA [A2E]	1.96
KPVEEELDAEDRPAWNSKLQYILA [A2P]	2.68
KVVEEELDAEDRPAWNSKLQYILA [A2V]	2.23
KDVEEELDAEDRPAWNSKLQYILA [A2D]	2.65
KAVEEELDAEDRGAWNSKLQYILA [P13G]	2.71
KAVEEELDAEDRTAWNSKLQYILA [P13T]	3.06

Variant	protein stability index
KAVEEELDAEDRSAWNSKLQYILA [P13S]	2.27
KAVEEELDAEDRWAWNSKLQYILA [P13W]	2.88
KAVEEELDAEDRIAWNSKLQYILA [P13I]	1.42
KAVEEELDAEDRKAWNSKLQYILA [P13K]	2.57
KAVEEELDAEDRFAWNSKLQYILA [P13F]	2.63
KAVEEELDAEDRPAWNSKVQYILA [L19V]	2.28
KAVEEELDAEDRPAWNSKCQYILA [L19C]	3.56
KAVEEELDAEDRPAWNSKPQYILA [L19P]	3.4
KAVEEELDAEDRPAWNSKMQYILA [L19M]	2.8
KAVEEELDAEDRPAWNSKSQYILA [L19S]	2.75
KAVEEELDAEDRPAWNSKFQYILA [L19F]	2.96
KAVEEELDAEDRPAWNSKDQYILA [L19D]	4.1
KAVEEELDAEDRPAWNSKWQYILA [L19W]	2.48
KAVEEELHAEDRPAWNSKLQYILA [D8H]	2.55
KAVEEELQAEDRPAWNSKLQYILA [D8Q]	2.25
KAVEEELMAEDRPAWNSKLQYILA [D8M]	1.92
KAVEEELEAEDRPAWNSKLQYILA [D8E]	2.64
KAVEEELCAEDRPAWNSKLQYILA [D8C]	2.14
KAVEEELYAEDRPAWNSKLQYILA [D8Y]	2.08
KAVEEELSAEDRPAWNSKLQYILA [D8S]	3.15
KAVEEELRAEDRPAWNSKLQYILA [D8R]	2.75
KAVEEELFAEDRPAWNSKLQYILA [D8F]	2.19
KAVEEELNAEDRPAWNSKLQYILA [D8N]	2.46
KAVEEELVAEDRPAWNSKLQYILA [D8V]	2.91

Variant	protein stability index
KAVEEELDAEDRPAWNQKLQYILA [S17Q]	2.32
KAVEEELDAEDRPAWNWKLQYILA [S17W]	1.82
KAVEEELDAEDRPAWNEKLQYILA [S17E]	4.48
KAVEEELDAEDRPAWNNKLQYILA [S17N]	3.15
KAVEEELDAEDRPAWNMKLQYILA [S17M]	2.33
KAVEEELDAEDRPAWNAKLQYILA [S17A]	2.55
KAVEEELDAEDRPAWNVKLQYILA [S17V]	2.46
KAVEEELDAEDRPAWNTKLQYILA [S17T]	2.25
KAVEEELDAEDRPAWNLKLQYILA [S17L]	1.99
KAVEEQLDAEDRPAWNSKLQYILA [E6Q]	2.68
KAVEESLDAEDRPAWNSKLQYILA [E6S]	2.14
KAVEELLDAEDRPAWNSKLQYILA [E6L]	1.7
KAVEEHLDAEDRPAWNSKLQYILA [E6H]	2.55
KAVEEELDAQDRPAWNSKLQYILA [E10Q]	1.67
KAVEEELDAFDRPAWNSKLQYILA [E10F]	2.63
KAVEEELDAWDRPAWNSKLQYILA [E10W]	1.76
KAVEEELDAGDRPAWNSKLQYILA [E10G]	3.72
KAVEEELDAADRPAWNSKLQYILA [E10A]	2.27
KAVEEELDADDRPAWNSKLQYILA [E10D]	2.52
KAVEEELDARDRPAWNSKLQYILA [E10R]	2.83
